Assay results as given in paper PMC5001605 (Nucleic Acids Research, 2016).

B1: Pyrococcus furiosus Pcc1 (pfuPcc1), full-length (natural protein)
chain: MKAKRVQAKIEIEFPSEDVAKVVYEAVLYEHLSVPYRRSEIDFKLEGKKIILDIKATDSSALRGTVNSYLRWIKAAIDVIEV
B2: Methanococcus jannaschii Kae1 (mjKae1), amino acids 1-328 (domain or fragment)
chain: MICLGLEGTAEKTGVGIVTSDGEVLFNKTIMYKPPKQGINPREAADHHAETFPKLIKEAFEVVDKNEIDLIAFSQGPGLGPSLRVTATVARTLSLTLKKPIIGVNHCIAHIEIGKLTTEAEDPLTLYVSGGNTQVIAYVSKKYRVFGETLDIAVGNCLDQFARYVNLPHPGGPYIEELARKGKKLVDLPYTVKGMDIAFSGLLTAAMRAYDAGERLEDICYSLQEYAFSMLTEITERALAHTNKGEVMLVGGVAANNRLREMLKAMCEGQNVDFYVPPKEFCGDNGAMIAWLGLLMHKNGRWMSLDETKIIPNYRTDMVEVNWIKEIK
B3: Pyrococcus furiosus Kae1 (pfuKae1) (natural protein)
chain: MIALGIEGTAHTLGIGIVTENKVLANVFDTLKTEKGGIHPKEAAEHHAKLLKPLLRKALEEAGVSMEDIDVIAFSQGPGLGPALRVVATAARALAIKYNKPIVGVNHCIAHVEITKMFGVKDPVGLYVSGGNTQVLALEGGRYRVFGETLDIGIGNALDVFARELGLGFPGGPKIEKLALKGEKYIELPYAVKGMDLSFSGLLTEAIRKYKSGKYRVEDLAYSFQETAFAALVEVTERALAHTEKEEVVLVGGVAANNRLREMLRIMAEDRGVKFFVPPYDLCRDNGAMIAYTGLRMYKAGIKFKLEETIVKQKFRTDEVEVVW

Legend:
[1] = biological target: B2; assay: SEC-MALS
[2] = biological target: B1; assay: SEC-MALS
[3] = biological target: B1; assay: AUC
[4] = biological target: B1; assay: SEC-MALS; remark: listed apart in the source

Binder	binding result [1]	stoichiometry N [2]	stoichiometry N [3]	stoichiometry N [4]
B1	binds			
B2		0.5 Kae1 per Pcc1 (1:2)	~1 Kae1 per Pcc1 (2:2)	1 Kae1 per Pcc1 (2:2)
B3				1 Kae1 per Pcc1 (2:2)
